{"source": "patent US20030216297A1", "about": "“Pharmaceutical composition” (SANKYO COMPANY, LIMITED, priority 2002, published 2003)", "experiment": "Serum concentration of OCIF after intravenous injection in rats", "assay_type": "in vivo", "settings": "Wistar female rat, single i.v. dose 0.5 mg OCIF/kg, 6 hours after administration", "method": "Five-week old Wistar female rat (having a body weight of about 100 g) were made to abstain from food overnight. The preparation of OCIF and dextran sulfate prepared in either Preparation Example 1, Preparation Example 2 or Reference Example 1 which was to be tested was diluted to a concentration of 0.25 mg/ml with PBS (pH 7.4) containing 0.01% Polysorbate 80 to prepare an injectable solution, which was then administered to the tail of one of the test rats via a vein in a single dose at an injected level of 2 ml/kg body weight. 6 hours after administration, blood was taken from the heart of the rat. […]\nAfter stirring gently using a shaking machine (Micro plate mixer NS-P: manufactured by Iuchi Seiei-Do Co Ltd.), the absorbance of each well at a wavelength of 450 nm was measured using a micro plate reader (SPECTRA THERMO: manufactured by TECAN). The OCIF concentration in the tested serum was then calculated from a calibration curve created using the standard OCIF solution. The dose was calculated as the dose of OCIF per kg body weight (mg/kg) by measuring the concentration of OCIF in each injection prepared in 1(a) in a similar manner to the case of the serum.\nThe OCIF in the serum obtained in 1(b) above was quantified for each sample according to the method described in 1(c) above."}
{"substance": "Prep. 4: OCIF/DS5 complex: DS5 130 mg/ml, OCIF 6.5 mg/ml, 4 °C, pH 10.5, 72 h", "values": [{"measurement": "Serum concentration (OCIF)", "result": 370, "unit": "ng/mL"}]}
